Patent publication EP4644418A1 (Hebei Senlang Biotechnology Co. Ltd., dated 2025)

Columns and labels:
[1] = target: T1, BCMA-His protein (extracellular region of human BCMA, His-tagged) (human, UniProt Q02223 1-54); experiment: SPR (Biacore 8K), BCMA-His captured on NTA chip, nanobody-Fc as analyte, 1:1 binding fit
T1 construct: extracellular domain; Made in house and purified on a Ni column; also called human BCMA antigen; recombinant BCMA-His protein; not shown: His tag
T1 sequence (looked up): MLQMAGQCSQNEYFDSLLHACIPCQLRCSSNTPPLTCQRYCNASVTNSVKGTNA

[2] = target: T1, BCMA-His protein (extracellular region …); experiment: ELISA, BCMA-His coated, anti-human IgG1 Fc-HRP detection
[3] = target: T1, BCMA-His protein (extracellular region …); experiment: monoclonal phage ELISA on coated BCMA protein, HA-HRP detection
[4] = target: T1, BCMA-His protein (extracellular region …); experiment: flow cytometry (MFI) of transduced K562 cells stained with BCMA-His and an anti-His tag antibody
[5] = target: T1, BCMA-His protein (extracellular region …); experiment: flow cytometry of CAR-T cells stained with BCMA-His and an anti-His tag antibody

B1: Nb003-02-Fc (Fc fusion)
chain: QVQLQESGGGLVQPGGSLRLSCAASGFTFSNYAMSWFRQGPGKERELVAGIDRTGGSTRTADSVQGRFTISRDNAKNKVYLQMNSLKPEDTAVYYCKALRTPGWGTSPDVVGYWGQGTQVTVSS
modifications: biotinylated for the flow cytometry assay only (sites not given)
notes: also called VHH02; not shown: N-terminal SUMO tag from plasmid pET-28a-Sumo-Nb-Fc; human IgG1 Fc tag at the C-terminus
Work on B1 yielded a Kd [1] of 1.79 nM, a koff [1] of 0.00212 s⁻¹ and a kon [1] of 1.19e+06 M⁻¹ s⁻¹. For the same binder, the EC50 [2] was 0.652 nM.

B2: Nb003-02 (VHH02), monoclonal phage clone (VHH)
VHH: QVQLQESGGGLVQPGGSLRLSCAASGFTFSNYAMSWFRQGPGKERELVAGIDRTGGSTRTADSVQGRFTISRDNAKNKVYLQMNSLKPEDTAVYYCKALRTPGWGTSPDVVGYWGQGTQVTVSS
B2: binds [3].

B3: dNMC003-A (dual VHH CAR, VHH02-(G4S)5-VHH02, on K562 or CAR-T cells) (other)
chain: QVQLQESGGGLVQPGGSLRLSCAASGFTFSNYAMSWFRQGPGKERELVAGIDRTGGSTRTADSVQGRFTISRDNAKNKVYLQMNSLKPEDTAVYYCKALRTPGWGTSPDVVGYWGQGTQVTVSSGGGGSGGGGSGGGGSGGGGSGGGGSQVQLQESGGGLVQPGGSLRLSCAASGFTFSNYAMSWFRQGPGKERELVAGIDRTGGSTRTADSVQGRFTISRDNAKNKVYLQMNSLKPEDTAVYYCKALRTPGWGTSPDVVGYWGQGTQVTVSSTTPAPRPPTPAPTIASQPLSLRPEACRPAAGGAVHTRGLDFACDIYIWAPLAGTCGVLLLSLVITLYCKRGRKKLLYIFKQPFMRPVQTTQEEDGCSCRFPEEEEGGCELRVKFSRSADAPAYKQGQNQLYNELNLGRREEYDVLDKRRGRDPEMGGKPRRKNPQEGLYNELQKDKMAEAYSEIGMKGERRRGKGHDGLYQGLSTATKDTYDALHMQALPPR
notes: T2A-tEGFR follows in the construct and is split off at T2A; also called K562-dNMC003-A; dNMC003-A CAR-T
B3: binds [4].

B4: Nb003-01 (VHH01), monoclonal phage clone (VHH)
VHH: QVQLQESGGGSVQPGGSLRLSCKASGFTFSPSAMSWARQAPGKEIEWVSNIYPDGRTYYADSMKGRFTISRDNAENTVYLQMNSLKPEDTAVYYCLIGVGIVAGQVVSPYWGQGTQVTVSS
B4: binds [3].

B5: Nb003-01-Fc (Fc fusion)
chain: QVQLQESGGGSVQPGGSLRLSCKASGFTFSPSAMSWARQAPGKEIEWVSNIYPDGRTYYADSMKGRFTISRDNAENTVYLQMNSLKPEDTAVYYCLIGVGIVAGQVVSPYWGQGTQVTVSS
modifications: biotinylated for the flow cytometry assay only (sites not given)
notes: also called VHH01; not shown: N-terminal SUMO tag from plasmid pET-28a-Sumo-Nb-Fc; human IgG1 Fc tag at the C-terminus
Work on B5 yielded a Kd [1] of 62 nM, a koff [1] of 0.000857 s⁻¹ and a kon [1] of 13800 M⁻¹ s⁻¹. For the same binder, the EC50 [2] was 2.05 nM.

B6: dNMC003-B (dual VHH CAR, VHH01-(G4S)5-VHH02, on K562 or CAR-T cells) (other)
chain: QVQLQESGGGSVQPGGSLRLSCKASGFTFSPSAMSWARQAPGKEIEWVSNIYPDGRTYYADSMKGRFTISRDNAENTVYLQMNSLKPEDTAVYYCLIGVGIVAGQVVSPYWGQGTQVTVSSGGGGSGGGGSGGGGSGGGGSGGGGSQVQLQESGGGLVQPGGSLRLSCAASGFTFSNYAMSWFRQGPGKERELVAGIDRTGGSTRTADSVQGRFTISRDNAKNKVYLQMNSLKPEDTAVYYCKALRTPGWGTSPDVVGYWGQGTQVTVSSTTPAPRPPTPAPTIASQPLSLRPEACRPAAGGAVHTRGLDFACDIYIWAPLAGTCGVLLLSLVITLYCKRGRKKLLYIFKQPFMRPVQTTQEEDGCSCRFPEEEEGGCELRVKFSRSADAPAYKQGQNQLYNELNLGRREEYDVLDKRRGRDPEMGGKPRRKNPQEGLYNELQKDKMAEAYSEIGMKGERRRGKGHDGLYQGLSTATKDTYDALHMQALPPR
notes: T2A-tEGFR follows in the construct and is split off at T2A; also called K562-dNMC003-B; dNMC003-B CAR-T
B6: binds [4].

B7: dNb003-B-Fc (Fc fusion)
chain: QVQLQESGGGSVQPGGSLRLSCKASGFTFSPSAMSWARQAPGKEIEWVSNIYPDGRTYYADSMKGRFTISRDNAENTVYLQMNSLKPEDTAVYYCLIGVGIVAGQVVSPYWGQGTQVTVSSGGGGSGGGGSGGGGSGGGGSGGGGSQVQLQESGGGLVQPGGSLRLSCAASGFTFSNYAMSWFRQGPGKERELVAGIDRTGGSTRTADSVQGRFTISRDNAKNKVYLQMNSLKPEDTAVYYCKALRTPGWGTSPDVVGYWGQGTQVTVSS
modifications: biotinylated for the flow cytometry assay only (sites not given)
notes: not shown: N-terminal SUMO tag from plasmid pET-28a-Sumo-Nb-Fc; human IgG1 Fc tag at the C-terminus
B7 showed a Kd [1] of 1.94 nM, a koff [1] of 0.00245 s⁻¹ and a kon [1] of 1.27e+06 M⁻¹ s⁻¹. It also gave an EC50 [2] of 0.346 nM.

B8: NMC003-01 (single VHH CAR with VHH01, on CAR-T cells) (other)
chain: QVQLQESGGGSVQPGGSLRLSCKASGFTFSPSAMSWARQAPGKEIEWVSNIYPDGRTYYADSMKGRFTISRDNAENTVYLQMNSLKPEDTAVYYCLIGVGIVAGQVVSPYWGQGTQVTVSSTTPAPRPPTPAPTIASQPLSLRPEACRPAAGGAVHTRGLDFACDIYIWAPLAGTCGVLLLSLVITLYCKRGRKKLLYIFKQPFMRPVQTTQEEDGCSCRFPEEEEGGCELRVKFSRSADAPAYKQGQNQLYNELNLGRREEYDVLDKRRGRDPEMGGKPRRKNPQEGLYNELQKDKMAEAYSEIGMKGERRRGKGHDGLYQGLSTATKDTYDALHMQALPPR
notes: also called NMC003-01 CAR-T
B8: binds [5].
